The values below are quoted from earlier work in article PMC10979411.

The target in this series is Nterm (UniProt position 44, ADPEAGIGAVL). Briefly: NMR. Conditions: micelle-associated melittin.

As to “Melittin (Apis mellifera (inferred; organism not stated in the article))”, the pKa is given as 7.15–8.15.
